Measurements: US20210388110A1 (published 2021)
Positions count from the first letter of the chain named. One block for each binder: values may come before it.

Target: T1, soluble human CD3ε chain (human, UniProt P07766 23-126, limits assumed)
T1 construct: the text says soluble human CD3ε chain; also called human CD3 epsilon chain
Assay: SPR (Biacore)

T1 sequence (P07766 23-126 limits assumed): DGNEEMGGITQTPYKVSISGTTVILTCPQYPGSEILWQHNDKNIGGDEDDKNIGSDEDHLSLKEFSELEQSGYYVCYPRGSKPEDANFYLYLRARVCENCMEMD

Kd: 6.13 nM
B1: TR01H071-E22Hh/none-Hi-Kn010G3/L0200-k0 (antibody, human IgG1, kappa, L234A L235A, N297A)
heavy: QVQLVESGGGLVQPGRSLRLSCAASGFTFSNAWMHWVRQAPGKGLEWVAQIKDKSNNYATYYAESVKGRFTISRADSKNSIYLQMNSLKTEDTAVYYCRYVHYAASYGVDIWGQGTTVTVSSASTKGPSVFPLAPSSKSTSGGTAALGCLVKDYFPEPVTVSWNSGALTSGVHTFPAVLQSSGLYSLSSVVTVPSSSLGTQTYICNVNHKPSNTKVDKKVEPKSCDKTHTCPPCPAPEAAGGPSVFLFPPKPKDTLMISRTPEVTCVVVDVSHEDPEVKFNWYVDGVEVHNAKTKPREEQYASTYRVVSVLTVLHQDWLNGKEYKCKVSNKALPAPIEKTISKAKGQPREPQVYTLPPSRCELTKNQVSLSCAVKGFYPSDIAVEWESNGQPENNYKTTPPVLDSDGSFFLVSKLTVDKSRWQQGNVFSCSVMHEALHNHYTQKSLSLSPDYKDDDDK
chain: EPKSSDKTHTCPPCPAPELLGGPSVFLFPPKPKDTLMISRTPEVTCVVVDVSHEDPEVKFNWYVDGVEVHNAKTKPREEQYNSTYRVVSVLTVLHQDWLNGKEYKCKVSNKALPAPIEKTISKAKGQPREPQVCTLPPSRDELTKNQVSLWCLVKGFYPSDIAVEWESNGQPENNYKTTPPVLDSDGSFFLYSKLTVDKSRWQQGNVFSCSVMHEALHNRYTQKSLSLSP
light: DIVMTQSPLSLPVTPGEPASISCRPSQSPVHSNRNTYLHWYQQKPGQAPRLLIYKVSNRFSGVPDRFSGSGSGTDFTLKISRVEAEDVGVYYCGQGTQVPYTFGQGTKLEIKRTVAAPSVFIFPPSDEQLKSGTASVVCLLNNFYPREAKVQWKVDNALQSGNSQESVTEQDSKDSTYSLSSTLTLSKADYEKHKVYACEVTHQGLSSPVTKSFNRGEC
notes: single-arm

Kd: 44.9 nM
B2: TR01H082-E22Hh/none-Hi-Kn010G3/L0201-k0 (antibody, human IgG1, kappa, L234A L235A, N297A)
heavy: B1 heavy with N56Q, A75D, I81L, S106G, I111A
chain: B1 chain
light: B1 light with P25S, S28P
notes: single-arm

Kd: 15.6 nM
B3: TR01H081-E22Hh/none-Hi-Kn010G3/L0000-k0 (antibody, human IgG1, kappa, L234A L235A, N297A)
heavy: B1 heavy with N56Q, S106G
chain: B1 chain
light: B1 light with P25S, P29L
notes: single-arm

Kd: 47.8 nM
B4: TR01H076-E22Hh/none-Hi-Kn010G3/L0000-k0 (antibody, human IgG1, kappa, L234A L235A, N297A)
heavy: B1 heavy with L11V, R16G, N56Q, I111Y
chain: B1 chain
light: B1 light with P25S, P29L
notes: single-arm

Kd: 40.7 nM
B5: TR01H082-E22Hh/none-Hi-Kn010G3/L0203-k0 (antibody, human IgG1, kappa, L234A L235A, N297A)
heavy: B1 heavy with N56Q, A75D, I81L, S106G, I111A
chain: B1 chain
light: B1 light with P25S, L38I
notes: single-arm

Kd: 25.1 nM
B6: TR01H071-E22Hh/none-Hi-Kn010G3/L0226-k0 (antibody, human IgG1, kappa, L234A L235A, N297A)
heavy: B1 heavy
chain: B1 chain
light: B1 light with P25S, L38I, G94I
notes: single-arm

Kd: 73.7 nM
B7: TR01H082-E22Hh/none-Hi-Kn010G3/L0000-k0 (antibody, human IgG1, kappa, L234A L235A, N297A)
heavy: B1 heavy with N56Q, A75D, I81L, S106G, I111A
chain: B1 chain
light: B1 light with P25S, P29L
notes: single-arm

Kd: 22.9 nM
B8: TR01H082-E22Hh/none-Hi-Kn010G3/L0267-k0 (antibody, human IgG1, kappa, L234A L235A, N297A)
heavy: B1 heavy with N56Q, A75D, I81L, S106G, I111A
chain: B1 chain
light: B1 light with G94V
notes: single-arm

Kd: 6.7 nM
B9: TR01H083-E22Hh/none-Hi-Kn010G3/L0011-k0 (antibody, human IgG1, kappa, L234A L235A, N297A)
heavy: B1 heavy with S106G
chain: B1 chain
light: B1 light with P25S, S28P, P29L
notes: single-arm

Kd: 19.8 nM
B10: TR01H084-E22Hh/none-Hi-Kn010G3/L0011-k0 (antibody, human IgG1, kappa, L234A L235A, N297A)
heavy: B1 heavy with L11V, R16G, N56Q, S106G
chain: B1 chain
light: B1 light with P25S, S28P, P29L
notes: single-arm

Kd: 9.46 nM
B11: TR01H081-E22Hh/none-Hi-Kn010G3/L0201-k0 (antibody, human IgG1, kappa, L234A L235A, N297A)
heavy: B1 heavy with N56Q, S106G
chain: B1 chain
light: B1 light with P25S, S28P
notes: single-arm

Kd: 34.4 nM
B12: TR01H082-E22Hh/none-Hi-Kn010G3/L0264-k0 (antibody, human IgG1, kappa, L234A L235A, N297A)
heavy: B1 heavy with N56Q, A75D, I81L, S106G, I111A
chain: B1 chain
light: B1 light with G94A
notes: single-arm

Kd: 39.8 nM
B13: TR01H082-E22Hh/none-Hi-Kn010G3/L0262-k0 (antibody, human IgG1, kappa, L234A L235A, N297A)
heavy: B1 heavy with N56Q, A75D, I81L, S106G, I111A
chain: B1 chain
light: B1 light with P25S, S28P, G94A
notes: single-arm

Kd: 47.6 nM
B14: TR01H082-E22Hh/none-Hi-Kn010G3/TR01L024-k0 (antibody, human IgG1, kappa, L234A L235A, N297A)
heavy: B1 heavy with N56Q, A75D, I81L, S106G, I111A
chain: B1 chain
light: B1 light with R24Q, P25A, Q27E, Q42L, A48S, R50Q, G94T
notes: single-arm

Kd: 47.2 nM
B15: TR01H082-E22Hh/none-Hi-Kn010G3/TR01L018-k0 (antibody, human IgG1, kappa, L234A L235A, N297A)
heavy: B1 heavy with N56Q, A75D, I81L, S106G, I111A
chain: B1 chain
light: B1 light with R24Q, P25A, Q27E, Q42L, A48S, R50Q
notes: single-arm

Kd: 10.4 nM
B16: TR01H071-E22Hh/none-Hi-Kn010G3/L0222-k0 (antibody, human IgG1, kappa, L234A L235A, N297A)
heavy: B1 heavy
chain: B1 chain
light: B1 light with P25S, L38I, H39Q, G94Y
notes: single-arm

Kd: 2.45 nM
B17: TR01H083-E22Hh/none-Hi-Kn010G3/L0262-k0 (antibody, human IgG1, kappa, L234A L235A, N297A)
heavy: B1 heavy with S106G
chain: B1 chain
light: B1 light with P25S, S28P, G94A
notes: single-arm

Kd: 47 nM
B18: TR01H082-E22Hh/none-Hi-Kn010G3/L0258-k0 (antibody, human IgG1, kappa, L234A L235A, N297A)
heavy: B1 heavy with N56Q, A75D, I81L, S106G, I111A
chain: B1 chain
light: B1 light with P25S, S28P, G94T
notes: single-arm

Kd: 20.3 nM
B19: TR01H072-E22Hh/none-Hi-Kn010G3/L0000-k0 (antibody, human IgG1, kappa, L234A L235A, N297A)
heavy: B1 heavy with N56Q
chain: B1 chain
light: B1 light with P25S, P29L
notes: single-arm

Kd: 30.9 nM
B20: TR01H082-E22Hh/none-Hi-Kn010G3/L0263-k0 (antibody, human IgG1, kappa, L234A L235A, N297A)
heavy: B1 heavy with N56Q, A75D, I81L, S106G, I111A
chain: B1 chain
light: B1 light with P25S, L38I, G94A
notes: single-arm

Kd: 4.75 nM
B21: TR01H082-E22Hh/none-Hi-Kn010G3/L0212-k0 (antibody, human IgG1, kappa, L234A L235A, N297A)
heavy: B1 heavy with N56Q, A75D, I81L, S106G, I111A
chain: B1 chain
light: B1 light with G94Y
notes: single-arm

Kd: 0.0586 nM
B22: TR01H083-E22Hh/none-Hi-Kn010G3/L0212-k0 (antibody, human IgG1, kappa, L234A L235A, N297A)
heavy: B1 heavy with S106G
chain: B1 chain
light: B1 light with G94Y
notes: single-arm

Kd: 50.7 nM
B23: TR01H082-E22Hh/none-Hi-Kn010G3/L0259-k0 (antibody, human IgG1, kappa, L234A L235A, N297A)
heavy: B1 heavy with N56Q, A75D, I81L, S106G, I111A
chain: B1 chain
light: B1 light with P25S, L38I, G94T
notes: single-arm

Kd: 5.76 nM
B24: TR01H081-E22Hh/none-Hi-Kn010G3/L0262-k0 (antibody, human IgG1, kappa, L234A L235A, N297A)
heavy: B1 heavy with N56Q, S106G
chain: B1 chain
light: B1 light with P25S, S28P, G94A
notes: single-arm

Kd: 6.83 nM
B25: TR01H083-E22Hh/none-Hi-Kn010G3/L0000-k0 (antibody, human IgG1, kappa, L234A L235A, N297A)
heavy: B1 heavy with S106G
chain: B1 chain
light: B1 light with P25S, P29L
notes: single-arm

Kd: 45.3 nM
B26: TR01H082-E22Hh/none-Hi-Kn010G3/L0260-k0 (antibody, human IgG1, kappa, L234A L235A, N297A)
heavy: B1 heavy with N56Q, A75D, I81L, S106G, I111A
chain: B1 chain
light: B1 light with G94T
notes: single-arm

Kd: 21.3 nM
B27: TR01H084-E22Hh/none-Hi-Kn010G3/L0000-k0 (antibody, human IgG1, kappa, L234A L235A, N297A)
heavy: B1 heavy with L11V, R16G, N56Q, S106G
chain: B1 chain
light: B1 light with P25S, P29L
notes: single-arm

Kd: 13.5 nM
B28: TR01H081-E22Hh/none-Hi-Kn010G3/L0011-k0 (antibody, human IgG1, kappa, L234A L235A, N297A)
heavy: B1 heavy with N56Q, S106G
chain: B1 chain
light: B1 light with P25S, S28P, P29L
notes: single-arm

Kd: 29.1 nM
B29: TR01H074-E22Hh/none-Hi-Kn010G3/L0000-k0 (antibody, human IgG1, kappa, L234A L235A, N297A)
heavy: B1 heavy with L11V, R16G, N56Q
chain: B1 chain
light: B1 light with P25S, P29L
notes: single-arm

Kd: 9.42 nM
B30: TR01H083-E22Hh/none-Hi-Kn010G3/L0222-k0 (antibody, human IgG1, kappa, L234A L235A, N297A)
heavy: B1 heavy with S106G
chain: B1 chain
light: B1 light with P25S, L38I, H39Q, G94Y
notes: single-arm

Kd: 9.51 nM
B31: TR01H071-E22Hh/none-Hi-Kn010G3/L0215-k0 (antibody, human IgG1, kappa, L234A L235A, N297A)
heavy: B1 heavy
chain: B1 chain
light: B1 light with P25S, S28P, L38I
notes: single-arm

Kd: 42.5 nM
B32: TR01H082-E22Hh/none-Hi-Kn010G3/TR01L023-k0 (antibody, human IgG1, kappa, L234A L235A, N297A)
heavy: B1 heavy with N56Q, A75D, I81L, S106G, I111A
chain: B1 chain
light: B1 light with P25S, Q42L, A48S, R50Q, G94T
notes: single-arm

Kd: 4.42 nM
B33: TR01H083-E22Hh/none-Hi-Kn010G3/L0201-k0 (antibody, human IgG1, kappa, L234A L235A, N297A)
heavy: B1 heavy with S106G
chain: B1 chain
light: B1 light with P25S, S28P
notes: single-arm

Kd: 59.7 nM
B34: TR01H073-E22Hh/none-Hi-Kn010G3/L0000-k0 (antibody, human IgG1, kappa, L234A L235A, N297A)
heavy: B1 heavy with N56Q, A75D, I81L
chain: B1 chain
light: B1 light with P25S, P29L
notes: single-arm

Kd: 22.9 nM
B35: TR01H082-E22Hh/none-Hi-Kn010G3/L0266-k0 (antibody, human IgG1, kappa, L234A L235A, N297A)
heavy: B1 heavy with N56Q, A75D, I81L, S106G, I111A
chain: B1 chain
light: B1 light with P25S, S28P, G94V
notes: single-arm

Kd: 59.5 nM
B36: TR01H082-E22Hh/none-Hi-Kn010G3/L0011-k0 (antibody, human IgG1, kappa, L234A L235A, N297A)
heavy: B1 heavy with N56Q, A75D, I81L, S106G, I111A
chain: B1 chain
light: B1 light with P25S, S28P, P29L
notes: single-arm
